Experimental data as given in patent US20240209078A1 (Amgen, published 2024).

Columns and labels:
[1] = biological target: human CDH3 (Cadherin-3, P-Cadherin) (human, UniProt P22223 108-829); experiment: cell-based or functional assay
human MSLN (mesothelin) = human MSLN (mesothelin) (human, UniProt Q13421 37-598); experiment: cell-based or functional assay
human CDH3 [2] = biological target: T1, human CDH3 (human, UniProt P22223 108-829); experiment: cell-based or functional assay
human CDH3 [3] = biological target: T1, human CDH3; experiment: cell-based or functional assay; remark: listed apart in the source
cyno MSLN = biological target: T2, cyno MSLN (cyno); experiment: cell-based affinity, flow cytometry on target-transfected CHO cells, nonlinear regression (one site - specific binding), mean of three measurements
T2 construct: whole, on cells; On transfected CHO cells; also called cy MSLN
Experimental: (§1) Cell-based affinity of CDH3 MSLN dual targeting antigen-binding molecules was determined by nonlinear regression (one site—specific binding) analysis. CHO cells expressing human CDH3, cyno CDH3, human MSLN or cyno MSLN were incubated with decreasing concentrations of CDH3 MSLN dual targeting antigen-binding molecules (12.5 nM on CDH3 cell lines, 800 nM on MSLN cell lines, step 1:2, 11 steps) for 16 h at 4° ° C. Bound CDH3 MSLN dual targeting antigen-binding molecules were detected with Alexa Fluor 488-conjugated AffiniPure Fab Fragment Goat Anti-Human IgG (H+L). Fixed cells were stained with DRAQ5, Far-Red Fluorescent Live-Cell Permeant DNA Dye and signals were detected by fluorescence cytometry. Respective equilibrium dissociation constant (Kd) values were calculated with the one site—specific binding evaluation tool of the GraphPad Prism software. Mean Kd values and affinity gaps were calculated with Microsoft Excel.
(§2) Cell-based affinities of CDH3 MSLN dual targeting antigen-binding molecules on target-transfected CHO cells were determined by nonlinear regression (one site - specific binding) analysis. Mean Kd values were calculated from three independent measurements. Affinity gaps were determined by dividing the cyno Kd by the human Kd.

human CDH3 [4] = biological target: T1, human CDH3; experiment: as above
Experimental: as §1, §2

cyno CDH3 = biological target: T3, cyno CDH3 (cyno); experiment: as above
T3 construct: whole, on cells; On transfected CHO cells; also called cy CDH3
Experimental: as §1, §2

| fold gap of column 2 (HCT 116 KO MSLN by Table 46) against double positive cells (human CDH3 [3]) | Kd (cyno MSLN) | Kd (human CDH3 [4]) | Kd (cyno CDH3) | Binder | cytotoxicity EC50, GSU KO MSLN cells [1] | cytotoxicity EC50, GSU KO CDH3 cells (human MSLN (mesothelin)) | EC50 on HCT 116 KO MSLN (cytotoxicity; cells CDH3+, MSLN-) (human CDH3 [2]) | EC50 on HCT 116 wt (cytotoxicity; cells CDH3+, MSLN+) (human CDH3 [2]) | EC50 (cytotoxicity) on double positive cells; column head printed 'EC50 CHO hu CDH3 (+) & MSLN (+)'; value is that of HCT 116 wt in Table 46 (human CDH3 [3]) | EC50 (cytotoxicity); column head printed 'EC50 CHO hu MSLN (+)', table title HCT 116; value is that of HCT 116 KO MSLN in Table 46 (human CDH3 [3]) |
| --- | --- | --- | --- | --- | --- | --- | --- | --- | --- | --- |
| – | – | – | – | MS 15-B12 CC × 6H10.09 × (G4) × heFc (A) * heFc (B) × (G4) × CH3 15-E11 CC × 6H10.09 (bispecific antibody) chain 1: not shown chain 2: DKTHTCPPCPAPELLGGPSVFLFPPKPKDTLMISRTPEVTCVVVDVSHEDPEVKFNWYVDGVEVHNAKTKPCEEQYGSTYRCVSVLTVLHQDWLNGKEYKCKVSNKALPAPIEKTISKAKGQPREPQVYTLPPSRKEMTKNQVSLTCLVKGFYPSDIAVEWESNGQPENNYKTTPPVLKSDGSFFLYSKLTVDKSRWQQGNVFSCSVMHEALHNHYTQKSLSLSPGKGGGGQVQLVQSGAEVKKPGASVKVSCKASGYTFTNYWMNWVRQAPGQCLEWMGNIAYGVKGTNYNQKFQGRVTMTVDTSSSTAYMELSRLRSDDTAVYYCATRYFYVMDYWGQGTLVTVSSGGGGSGGGGSGGGGSDIQMTQSPSSLSASVGDRVTITCRASQDISNYLNWYQQKPGKVPKLLIYYTSRLHSGVPSRFSGSGSGTDFTLTISSLQPEDVATYYCVQYAQFPLTFGCGTKVEIKSGGGGSEVQLVESGGGLVQPGGSLKLSCAASGFTFNKYAMNWVRQAPGKGMEWVARIRSKYNNYATYYADAVKDRFTISRDDSKNTLYLQMNNLKTEDTAVYYCVRAGNFGSSYISYFAYWGQGTLVTVSSGGGGSGGGGSGGGGSQTVVTQEPSLTVSPGGTVTITCGSSTGAVTSGNYPNWIQKKPGQAPRGLIGGTKFLAPGTPARFSGSLEGGKAALTLSGVQPEDEAEYYCVLYYSNRWVFGSGTKLTVL | 533 pM | 391 pM | – | – | – | – |
| 122 fold | 51400 pM | 160 pM | 190 pM | CH3 15-E11 CC × I2L × G4 × scFc × G4 × MS 15-B12 CC × I2L_GQ (bispecific antibody, Single chain: CDH3 scFv - CD3 scFv (I2L) - scFc - MSLN scFv - CD3 scFv (I2L)) QVQLVQSGAEVKKPGASVKVSCKASGYTFTNYWMNWVRQAPGQCLEWMGNIAYGVKGTNYNQKFQGRVTMTVDTSSSTAYMELSRLRSDDTAVYYCATRYFYVMDYWGQGTLVTVSSGGGGQGGGGQGGGGQDIQMTQSPSSLSASVGDRVTITCRASQDISNYLNWYQQKPGKVPKLLIYYTSRLHSGVPSRFSGSGSGTDFTLTISSLQPEDVATYYCVQYAQFPLTFGCGTKVEIKSGGGGQEVQLVESGGGLVQPGGSLKLSCAASGFTFNKYAMNWVRQAPGKGMEWVARIRSKYNNYATYYADAVKDRFTISRDDSKNTLYLQMNNLKTEDTAVYYCVRAGNFGSSYISYFAYWGQGTLVTVSSGGGGQGGGGQGGGGQQTVVTQEPSLTVSPGGTVTITCGSSTGAVTSGNYPNWIQKKPGQAPRGLIGGTKFLAPGTPARFSGSLEGGKAALTLSGVQPEDEAEYYCVLYYSNRWVFGSGTKLTVLGGGGCPPCPAPELLGGPSVFLFPPKPKDTLMISRTPEVTCVVVDVSHEEPEVKFNWYVDGVEVHNAKTKPCEEQYGSTYRCVSVLTVLHQDWLNGKEYKCKVSNKALPAPIEKTISKAKGQPREPQVYTLPPSREEMTKNQVSLTCLVKGFYPSDIAVEWESNGQPENNYKTTPPVLDSDGSFFLYSKLTVDKSRWQQGNVFSCSVMHEALHNHYTQKSLSLSPGKGGGGQGGGGQGGGGQGGGGQGGGGQGGGGQCPPCPAPELLGGPSVFLFPPKPKDTLMISRTPEVTCVVVDVSHEEPEVKFNWYVDGVEVHNAKTKPCEEQYGSTYRCVSVLTVLHQDWLNGKEYKCKVSNKALPAPIEKTISKAKGQPREPQVYTLPPSREEMTKNQVSLTCLVKGFYPSDIAVEWESNGQPENNYKTTPPVLDSDGSFFLYSKLTVDKSRWQQGNVFSCSVMHEALHNHYTQKSLSLSPGKGGGGQVQLQESGPGLVKPSETLSLTCTVSGGSISSSSYFWGWIRQPPGKCLEWIGNIYYSGSSNYNPSLKSRVTISVDTSKNQFSLKLSSVTAADTAVYYCARLPRGDRDAFDIWGQGTMVTVSSGGGGQGGGGQGGGGQDIVMTQSPSSLSASVGDRVTITCRASQGISNYLAWYQQKPGKVPKLLIYAASTLQSGVPSRFSGSGSGTDFTLTISSLQPEDFATYYCQQSYSTPFTFGCGTKVEIKSGGGGQEVQLVESGGGLVQPGGSLKLSCAASGFTFNKYAMNWVRQAPGKGMEWVARIRSKYNNYATYYADAVKDRFTISRDDSKNTLYLQMNNLKTEDTAVYYCVRAGNFGSSYISYFAYWGQGTLVTVSSGGGGQGGGGQGGGGQQTVVTQEPSLTVSPGGTVTITCGSSTGAVTSGNYPNWIQKKPGQAPRGLIGGTKFLAPGTPARFSGSLEGGKAALTLSGVQPEDEAEYYCVLYYSNRWVFGSGTKLTVL | – | – | 8.7 pM | 0.07 pM | 0.071 pM | 8.7 pM |
| – | 50300 pM | 510 pM | 570 pM | CH3 15-E11_1_VAG_CC × I2L × G4 × scFc × G4 × MS 15-B12 CC × I2L clipopt_DI (bispecific antibody, Single chain) QVQLVQSGAEVKKPGASVKVSCKASGYTFTNYWMNWVRQAPGQCLEWMGNIAYGVAGTNYNQKFQGRVTMTVDTSSSTAYMELSRLRSDDTAVYYCATRYFYVMDYWGQGTLVTVSSGGGGQGGGGQGGGGQDIQMTQSPSSLSASVGDRVTITCRASQDISNYLNWYQQKPGKVPKLLIYYTSRLHSGVPSRFSGSGSGTDFTLTISSLQPEDVATYYCVQYAQFPLTFGCGTKVEIKSGGGGQEVQLVESGGGLVQPGGSLKLSCAASGFTFNKYAMNWVRQAPGKGMEWVARIRSKYNNYATYYADAVKDRFTISRDDSKNTLYLQMNNLKTEDTAVYYCVRAGNFGSSYISYFAYWGQGTLVTVSSGGGGQGGGGQGGGGQQTVVTQEPSLTVSPGGTVTITCGSSTGAVTSGNYPNWIQKKPGQAPRGLIGGTKFLAPGTPARFSGSLEGGKAALTLSGVQPEDEAEYYCVLYYSNRWVFGSGTKLTVLGGGGCPPCPAPELLGGPSVFLFPPKPKDTLMISRTPEVTCVVVDVSHEEPEVKFNWYVDGVEVHNAKTKPCEEQYGSTYRCVSVLTVLHQDWLNGKEYKCKVSNKALPAPIEKTISKAKGQPREPQVYTLPPSREEMTKNQVSLTCLVKGFYPSDIAVEWESNGQPENNYKTTPPVLDSDGSFFLYSKLTVDKSRWQQGNVFSCSVMHEALHNHYTQKSLSLSPGKGGGGQGGGGQGGGGQGGGGQGGGGQGGGGQCPPCPAPELLGGPSVFLFPPKPKDTLMISRTPEVTCVVVDVSHEEPEVKFNWYVDGVEVHNAKTKPCEEQYGSTYRCVSVLTVLHQDWLNGKEYKCKVSNKALPAPIEKTISKAKGQPREPQVYTLPPSREEMTKNQVSLTCLVKGFYPSDIAVEWESNGQPENNYKTTPPVLDSDGSFFLYSKLTVDKSRWQQGNVFSCSVMHEALHNHYTQKSLSLSPGKGGGGQVQLQESGPGLVKPSETLSLTCTVSGGSISSSSYFWGWIRQPPGKCLEWIGNIYYSGSSNYNPSLKSRVTISVDTSKNQFSLKLSSVTAADTAVYYCARLPRGDRDAFDIWGQGTMVTVSSGGGGQGGGGQGGGGQDIVMTQSPSSLSASVGDRVTITCRASQGISNYLAWYQQKPGKVPKLLIYAASTLQSGVPSRFSGSGSGTDFTLTISSLQPEDFATYYCQQSYSTPFTFGCGTKVEIKSGGGGQEVQLVESGGGLVQPGGSLKLSCAASGFTFNKYAMNWVRQAPGKGMEWVARIRSKYNNYATYYADAVKDRFTISRDDSKNTLYLQMNNLKTEDTAVYYCVRAGNFGSSYISYFAYWGQGTLVTVSSGGGGQGGGGQGGGGQQTVVTQEPSLTVSPGGTVTITCGSSTGAVTSGNYPNWIQKKPGQAPRGLIGGTKFLAPGTPARFSGSLEGGKAALTLSGVQPEDEAEYYCVLYYSNRWVFGSGTKLTVL | – | – | – | – | – | – |
